This passage reports stoichiometry N results from publication doi:10.1101/251942.

This assay concerns the target Brucella adipic acid activated regulator (BaaR), residues 21-284 (Brucella abortus). Put plainly: crystal structure.

The stoichiometry N is a count of units in the complex or per binding partner. For “Brucella adipic acid activated regulator (BaaR), residues 21-284 (domain or fragment)”, the stoichiometry N was determined as 2.
